# B1: #11: feed-back resistant metA 11 gene product, amino acid sequence SEQ. ID. NO: 16 (protein, listed as Escherichia coli)
# chain: MPIRVPDELPAVNFLREENVFVMSTSRASGQEIRPLKVLILNLMPKKIETENQFLRLLSNSPLQVDIQLLRIDSRESRNTPAEHLNNFYCNFEDIQDQNFDGLIVTGAPLGLVEFNDVAYWPQIKQVLEWSKDHVTSTLFVCWAVQAALNILYGIPKQTRTEKLSGVYEHHILHPHALLTRGFDDSFLAPHSRYADFPAALIRDYTDLEILAETEEGDAYLFASKDKRIAFVTGHPEYDAQTLAQEFFRDVEAGLDPDVPYNYFPHNDPQNTPRESWRSHGNLLFTNWLNYYVYQIAPYDLRHMYPTLD
# B2: #32: feed-back resistant metA 32 gene product, amino acid sequence SEQ. ID. NO: 18 (protein, listed as Escherichia coli)
# chain: MPIRVPDELPAVNFLREENVFVMTTSRASGQEIRPLKVLILNLMPKKIETENQFLRLLSNSPLQVDIQLLRIDSRESRNTPAEHLNNFYCNFEDIQDQNFDGLIVTGAPLGLVEFNDVAYWPQIKQVLEWSKDHVTSTLFVCWAVQAALNILYGIPKQTRTEKLSGVYEHHILHPHALLTRGFDDSFLAPHSRYADFPAALIRDYTDLEILAETEEGDAYLFASKDKRIAFVTGHPEYDAQTLAQEFFRDVEAGLDPDVPYNYFPHNDPQNTPRASWRSHGNLLFTNWLHYYVYQITPYDLRHMNPTLD
# B3: #10: feed-back resistant metA 10 gene product, amino acid sequence SEQ. ID. NO: 14 (protein, listed as Escherichia coli)
# chain: MPIRVPDELPAVNFLREENVFVMTTSRASGQEIRPLKVLILNLMPKKIETENQFLRLLSNSPLQVDIQLLRIDSRESRNTPAEHLNNFYCNFEDIQDQNFDGLIVTGAPLGLVEFNDVAYWPQIKQVLEWSKDHVTSTLFVCWAVQAALNILYGIPKQTRTEQLSGVYEHHILHPHALLTRGFDDSFLAPHSRYADFPAALIRDYTDLEILAETEEGDAYLLASKDKRIAFVTGHPEYDAQTLAQEFFRDVEAGLDPDVPYNYFPHNDPQNTPRASWRSHGNLLFTNWLNYYVYRITPYDLRHMNPTLD
# B4: #37: feed-back resistant metA 37 gene product, amino acid sequence SEQ. ID. NO: 20 (protein, listed as Escherichia coli)
# chain: MPIRVPDELPAVNFLREENVFVMTTSRAPGQEIRPLKVLILNLMPKKIETENQFLRLLSNSPLQVDIQLLRIDSRESRNTPAEHLNNFYCNFEDIQDQNFDGLIVTGAPLGLVGFNDVAYWPQIKQVLEWSKDHVTSTLSVCWAVQAALNILYGIPKQTRTEKLSGVYEHHILHPHALLTRGFDDSFLAPHSRYADFPAALIRDYTDLEILAETEEGDAYLFASKDKRIAFVTGHPEYDAQTLAQEFFRDVEAGLDPDVPYNYFPHNDPQNTPRASWRSHGNLLFTNWLNYYVYQITPYDLRHMNPTLD
# B5: #41: feed-back resistant metA 41 gene product, amino acid sequence SEQ. ID. NO: 22 (protein, listed as Escherichia coli)
# chain: MPIRVPDELPAVNFLREENVFVMTTSRASGQEIRPLKVLILNLMPKKIETENQFLRLLSNSPLQVDIQLLRIDSRESRSTPAEHLNNFYCNFEDIQDQNFDGLIVTGAPLGLVEFNDVAYWPQIKQVLEWSKDHVTSTLIVCWAVQAALNILYGIPKQTRTEKLSGVYEHHILHPHALLTRGFDDSFLAPHSRYADFPAALIRDYTDLEILAETEEGDAYLFASKDKRIAFVTGHPEYDAQTLAQEFFRDVEAGLDPDVPYNYFPHNDPQNTPRASWRSHGNLLFTNWLNNYVYQITPYDLRHLNPTLD
# B6: w.t.: wild type metA, homoserine O-succinyltransferase of E. coli (protein, UniProt P07623 2-309, looked up)
# Homoserine …: PIRVPDELPAVNFLREENVFVMTTSRASGQEIRPLKVLILNLMPKKIETENQFLRLLSNSPLQVDIQLLRIDSRESRNTPAEHLNNFYCNFEDIQDQNFDGLIVTGAPLGLVEFNDVAYWPQIKQVLEWSKDHVTSTLFVCWAVQAALNILYGIPKQTRTEKLSGVYEHHILHPHALLTRGFDDSFLAPHSRYADFPAALIRDYTDLEILAETEEGDAYLFASKDKRIAFVTGHPEYDAQTLAQEFFRDVEAGLDPDVPYNYFPHNDPQNTPRASWRSHGNLLFTNWLNYYVYQITPYDLRHMNPTLD
# Assays:
# [1] = test system: homoserine O-succinyltransferase (metA); test: Feed back resistance of mutant metA in the presence of 100 mM methionine; type: biochemical, Escherichia coli; details: w/ 100 mM Met; control without Met = 100
# Description: To increase production of O-succinylhomoserine which is L-methionine precursor, overexpression of feed-back resistant metA gene encoding homoserine O-succinyltransferase was performed. PCT/US2007/009146 discloses the method for preparing feed-back resistant metA gene and activity of that.
# The sequence of the feed-back resistant metA 10 gene is represented in SEQ. ID. NO: 13 and the amino acid sequence encoding by the gene is represented in SEQ. ID. NO: 14. The sequence of metA 11 gene is represented in SEQ. ID. NO: 15 and the amino acid sequence encoding by the gene is represented in SEQ. ID. NO: 16. The sequence of metA 32 gene is represented in SEQ. ID. NO: 17 and the amino acid sequence encoding by the gene is represented in SEQ. ID. NO: 18. The sequence of metA 37 gene is represented in SEQ. ID. NO: 19 and the amino acid sequence encoding by the gene is represented in SEQ. ID. NO: 20. The sequence of metA 41 gene is represented in SEQ. ID. NO: 21 and the amino acid sequence encoding by the gene is represented in SEQ. ID. NO: 22 (PCT/US2007/009146).
# W3-BTJA strain = test: O-succinylhomoserine production of feed back resistant metA in W3-BTJA strain, Erlenmeyer flask culture; type: cell-based, E. coli; details: for O-succinylhomoserine production (%): metA plasmid in W3-BTJA strain, flask culture 64 hours, HPLC, wild type = 100%; for O-succinylhomoserine production compared with wild type: metA vector in W3-BTJA strain, flask culture
# Description: The vector was electroporated into W3-BTJA strain and production capacity of the strain was checked using Erlenmeyer flask culture as described in Example 2-1, O-succinylhomoserine production of modified strain is measured, based on 100% of O-succinylhomoserine production of wild type strain.
# To measure the methionine precursor production of each strain constructed in Example 1, Erlenmeyer flask culture was performed. Each strain was cultured on LB plate media at 31° C. for overnight. A single colony was inoculated in 3 ml of LB medium, followed by culture at 31° C. for 5 hours. The culture solution was 200 fold diluted in 250 ml Erlenmeyer flask containing 25 ml of methionine precursor producing medium, followed by culture at 31° C., 200 rpm for 64 hours. HPLC was performed to compare with methionine precursor production capacity (Table 2 and Table 3).
Molecule,% of specific activity retention [1] [%],O-succinylhomoserine production (%) (W3-BTJA strain),O-succinylhomoserine production compared with wild type (W3-BTJA strain)
B1,94,425,the most effective production
B2,79,396,the most effective production
B3,97,392,the most effective production
B4,83,227,
B5,74,389,
B6,7.6,100,

# — patent publication US7851180B2, “Microorganism producing L-methionine precursor and the method of producing L-methionine precursor using the microorganism” (CJ Cheiljedang Corporation, priority 2008, dated 2010)
